*: point of attachment. FITC = O=C1OC2(c3ccc(O)cc3Oc3cc(O)ccc32)c2ccc(NC(=S)*)cc21; Ahx = NCCCCCC(=O)O
Target: T1, full-length E. coli DnaK (residues 1–638) (Escherichia coli, UniProt P0A6Y8 1-638)
T1 construct: DnaK (Hsp70), Escherichia coli, residues 1-638; cloned from pTTQ19dnaK+ into pET28a; source: E. coli BL21(DE3), purified (Q Sepharose, DEAE-Sephacel, Superdex 200)
Test: fluorescence polarisation; fluorescence anisotropy of FITC-B2 with 1-μM DnaK in buffer C (50-mM Tris-HCl pH 7.4, 20-mM MgCl2, 1-mM EDTA, 0.5-mM TCEP), DBeQ solutions in DMSO added, room temperature, 30-min incubation
Conditions: both partners purified

T1 sequence (P0A6Y8 whole entry, the tested form may be a part): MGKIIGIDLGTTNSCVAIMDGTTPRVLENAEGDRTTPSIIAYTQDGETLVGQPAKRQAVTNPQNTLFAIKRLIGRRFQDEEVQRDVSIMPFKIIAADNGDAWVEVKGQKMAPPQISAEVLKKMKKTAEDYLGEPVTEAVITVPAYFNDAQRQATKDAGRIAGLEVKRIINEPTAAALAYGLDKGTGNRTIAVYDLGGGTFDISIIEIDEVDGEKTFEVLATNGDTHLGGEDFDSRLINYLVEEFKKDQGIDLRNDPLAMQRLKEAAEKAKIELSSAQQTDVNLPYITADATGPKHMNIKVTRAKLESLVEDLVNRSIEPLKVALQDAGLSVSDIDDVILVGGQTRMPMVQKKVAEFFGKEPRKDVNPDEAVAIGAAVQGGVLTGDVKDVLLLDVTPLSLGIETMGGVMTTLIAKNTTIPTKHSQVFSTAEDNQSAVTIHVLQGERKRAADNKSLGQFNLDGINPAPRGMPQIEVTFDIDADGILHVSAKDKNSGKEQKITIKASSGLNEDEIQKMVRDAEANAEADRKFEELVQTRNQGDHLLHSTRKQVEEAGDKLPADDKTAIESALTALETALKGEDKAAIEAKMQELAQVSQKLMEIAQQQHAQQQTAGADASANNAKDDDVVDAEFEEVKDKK

B1: FITC-B2 (FITC-Ahx-QRKLFFNLRKTKQRLGWFNQ-NH2) (peptide)
peptide: {FITC-Ahx}-QRKLFFNLRKTKQRLGWFNQ-NH2
SMILES: CC(C)C[C@H](NC(=O)[C@H](CCCNC(=N)N)NC(=O)[C@H](CCC(N)=O)NC(=O)[C@H](CCCCN)NC(=O)[C@@H](NC(=O)[C@H](CCCCN)NC(=O)[C@H](CCCNC(=N)N)NC(=O)[C@H](CC(C)C)NC(=O)[C@H](CC(N)=O)NC(=O)[C@H](Cc1ccccc1)NC(=O)[C@H](Cc1ccccc1)NC(=O)[C@H](CC(C)C)NC(=O)[C@H](CCCCN)NC(=O)[C@H](CCCNC(=N)N)NC(=O)[C@H](CCC(N)=O)NC(=O)CCCCCNC(=S)Nc1ccc2c(c1)C(=O)OC21c2ccc(O)cc2Oc2cc(O)ccc21)[C@@H](C)O)C(=O)NCC(=O)N[C@@H](Cc1c[nH]c2ccccc12)C(=O)N[C@@H](Cc1ccccc1)C(=O)N[C@@H](CC(N)=O)C(=O)N[C@@H](CCC(N)=O)C(N)=O
notes: peptide B2, substrate-mimicking peptide; also called FITC-labeled peptide B2; substrate-mimicking peptide; source: obtained as described before (65)
  binding result: binds

Source: publication PMC7948422, “Repurposing p97 inhibitors for chemical modulation of the bacterial ClpB–DnaK bichaperone system” (The Journal of Biological Chemistry, 2020)
